The target in experiment [1] is native Gli123 protein (Mycoplasma mobile). Description: SEC.
Experiment [2] shares this target. The experiment is described as follows: negative-staining EM with single-particle analysis.
Experiment [3] deals with recombinant Gli123 (Mycoplasma mobile). Description: SEC-SAXS.

We go through 2 substances from doi:10.1101/2022.09.07.507039.

In the case of native Gli123 protein (natural protein), the stoichiometry N in experiment [1] and in experiment [2] was 2 each time. On to recombinant Gli123 (natural protein), for which the stoichiometry N in experiment [3] was 2.
